The target of the assay is RIPK3 (UniProt Q9Y572). Briefly: anti-Flag co-IP, Myc blot. To be noted: reference: wild-type Myc-CSNK1G2; sites S211,T215.

Consider “CSNK1G2 (from UniProt P78368) S211A/T215A”, for which the “binding against the reference” value is given as “lost”.

These data come from PMC7673785.
